From article PMC11461180, “Interaction with IP6K1 supports pyrophosphorylation of substrate proteins by the inositol pyrophosphate 5-InsP7” (Bioscience Reports, 2024)

Molecular target: V5-tagged IP6K1 (human, UniProt Q92551-1 1-441)
Assay: cell-based or functional assay

V5-tagged IP6K1, sequence (Q92551 whole entry): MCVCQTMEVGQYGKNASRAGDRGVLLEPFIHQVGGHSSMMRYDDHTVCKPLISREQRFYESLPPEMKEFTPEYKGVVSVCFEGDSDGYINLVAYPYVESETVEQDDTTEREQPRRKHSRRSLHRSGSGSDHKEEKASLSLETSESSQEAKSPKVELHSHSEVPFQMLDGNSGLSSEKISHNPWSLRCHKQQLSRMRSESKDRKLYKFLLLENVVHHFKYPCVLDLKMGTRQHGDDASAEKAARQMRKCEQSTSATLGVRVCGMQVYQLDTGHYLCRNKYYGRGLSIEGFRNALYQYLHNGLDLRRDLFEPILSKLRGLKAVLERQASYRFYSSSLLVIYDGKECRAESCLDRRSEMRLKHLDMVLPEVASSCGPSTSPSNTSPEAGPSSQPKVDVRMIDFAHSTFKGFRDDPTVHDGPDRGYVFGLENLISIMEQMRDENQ

back-pyrophosphorylation of myc-AP3B1 by 5[β-32P]InsP7 after immunoprecipitation from IP6K1 knockout HEK293T cells co-expressing IP6K1-V5 and HA-CK2α, with SFB-IDR-1 against without: ~2 fold
B1: myc epitope-tagged AP3B1 (natural protein, human, UniProt O00203-1 1-1094, looked up)
chain: MSSNSFPYNEQSGGGEATELGQEATSTISPSGAFGLFSSDLKKNEDLKQMLESNKDSAKLDAMKRIVGMIAKGKNASELFPAVVKNVASKNIEIKKLVYVYLVRYAEEQQDLALLSISTFQRALKDPNQLIRASALRVLSSIRVPIIVPIMMLAIKEASADLSPYVRKNAAHAIQKLYSLDPEQKEMLIEVIEKLLKDKSTLVAGSVVMAFEEVCPDRIDLIHKNYRKLCNLLVDVEEWGQVVIIHMLTRYARTQFVSPWKEGDELEDNGKNFYESDDDQKEKTDKKKKPYTMDPDHRLLIRNTKPLLQSRNAAVVMAVAQLYWHISPKSEAGIISKSLVRLLRSNREVQYIVLQNIATMSIQRKGMFEPYLKSFYVRSTDPTMIKTLKLEILTNLANEANISTLLREFQTYVKSQDKQFAAATIQTIGRCATNILEVTDTCLNGLVCLLSNRDEIVVAESVVVIKKLLQMQPAQHGEIIKHMAKLLDSITVPVARASILWLIGENCERVPKIAPDVLRKMAKSFTSEDDLVKLQILNLGAKLYLTNSKQTKLLTQYILNLGKYDQNYDIRDRTRFIRQLIVPNVKSGALSKYAKKIFLAQKPAPLLESPFKDRDHFQLGTLSHTLNIKATGYLELSNWPEVAPDPSVRNVEVIELAKEWTPAGKAKQENSAKKFYSESEEEEDSSDSSSDSESESGSESGEQGESGEEGDSNEDSSEDSSSEQDSESGRESGLENKRTAKRNSKAKGKSDSEDGEKENEKSKTSDSSNDESSSIEDSSSDSESESEPESESESRRVTKEKEKKTKQDRTPLTKDVSLLDLDDFNPVSTPVALPTPALSPSLMADLEGLHLSTSSSVISVSTPAFVPTKTHVLLHRMSGKGLAAHYFFPRQPCIFGDKMVSIQITLNNTTDRKIENIHIGEKKLPIGMKMHVFNPIDSLEPEGSITVSMGIDFCDSTQTASFQLCTKDDCFNVNIQPPVGELLLPVAMSEKDFKKEQGVLTGMNETSAVIIAAPQNFTPSVIFQKVVNVANVGAVPSGQDNIHRFAAKTVHSGSLMLVTVELKEGSTAQLIINTEKTVIGSVLLRELKPVLSQG
